This passage reports pH EC50 of proton-gated currents, whole-cell patch clamp of CHO cells cotransfected with nmrASIC3 + nmrASIC1b results from PMC5798305.

In the test the target is naked mole-rat ASIC1b (naked mole-rat).

For the substance naked mole-rat ASIC3 (natural protein), the pH EC50 of proton-gated currents, whole-cell patch clamp of CHO cells cotransfected with nmrASIC3 + nmrASIC1b amounted to 5.58 pH.
